Data on two molecules can be found in article PMC3600295.

Series [1] deals with T1, human alpha-thrombin (Homo sapiens, UniProt P00734;P00734 315-363;364-622). Nature of the series: potentiometric aptasensor; PANI transducer; LOD 71 nM, 2.97 mV/decade (not a Kd); PBS listed as reagent; salt, pH and temperature of the potentiometric assay not given in the material.
Series [2] has as its target T1, human alpha-thrombin. Nature of the series: potentiometric aptasensor; SWCNT transducer; LOD 80 nM, 8.03 mV/decade (not a Kd); PBS listed as reagent; salt, pH and temperature of the potentiometric assay not given in the material.

B1: TBA 15-mer, 5'-SH (PANI sensor) (structured_DNA)
DNA: GGTTGGTGTGGTTGG
modifications: 5'-SH, coupled to polyaniline
With B1, the binding result with human alpha-thrombin [1] is on record as “binds”.

B2: TBA 15-mer, 5'-NH2 (SWCNT sensor) (structured_DNA)
DNA: GGTTGGTGTGGTTGG
modifications: 5'-NH2, coupled to SWCNT carboxyl groups
Turning to B2, the binding result in the series with human alpha-thrombin [2] was “binds”.
